According to patent publication US6872537:

Target: microtubules prepared from bovine brain tubulin

B1: co-expressed baculovirus p60/p80 katanin heterodimer (both subunits with N-terminal His(6) tag) (protein)
chain 1: HHHHHHMSVDEICENTKMGREYALLGNYETSLVYYQGVLQQIQKLLTSVHEPQRKHQWQTIRQELSQEYEHVKNITKTLNGFKSEPAAPEPAPNHGRAAPFSHHQHAAKPAAAEPARDPDVWPPPTPVDHRPSPPYQRAARKDPPRRSEPSKPANRAPGNDRGGRGPSDRRGDARSGGGGRGGARGSDKDKNRGGKSDKDKKAPSGEEGDEKKFDPAGYDKDLVENLERDIVQRNPNVHWADIAGLTEAKRLLEEAVVLPLWMPDYFKGIRRPWKGVLMVGPPGTGKTMLAKAVATECGTTFFNVSSASLTSKYHGESEKLVRLLFEMARFYAPSTIFIDEIDSICSKRGTGSEHEASRRVKSELLIQMDGVSGPSAGEESSKMVMVLAATNFPWDIDEALRRRLEKRIYIPLPEIDGREQLLRINLKEVPLADDIDLKSIAEKMDGYSGADITNVCRDASMMAMRRRIQGLRPEEIRHIPKEELNQPSTPADFLLALQKVSKSVGKEDLVKYMAWMEEFGSV
chain 2: HHHHHHMATKRAWKLQELVAHSSNVNCLALGPMSGRVMVTGGEDKKVNLWAVGKQNCIISLSGHTSPVDSVKFNSSEELVVAGSQSGTMKIYDLEPAKIVRTLTGHRNSIRCMDFHPFGEFVASGSTDTNVKLWDVRRKGCIYTYKGHSDQVNMIKFSPDGKWLVTASEDTTIKLWDLTMGKLFQEFKNHTGGVTGIEFHPNEFLLASGSSDRTVQFWDLETFQLVSSTSPGASAVRSISFHPDGSYLFCSSQDMLHAFGWEPIRCFDTFSVFWGKVADTVIASTQLIGASFNATNVSVYVADLSRMSTTGIAQEPQSQPSKTPSGGAEEVPSKPLTASGRKNFVRERPHTTSSKQRQPDVKSEPERQSPTQDEGVKDDDATDIKDPDSYAKIFSPKTRVDHSPERNAQPFPAPLDVPGAQEPEPFKHPPKPAAAAAVAPVSRAPAPSASDWQPAQANPAPNRVPAATKPVPAQEVAPSRKPDPISTIIPSDRNKPANLDMDAFLPPAHAQQAPRVNAPASRKQSDSERIEGLRKGHDSMCQVLSSRHRNLDVVRAIWTAGDAKTSVESVVNMKDQAILVDILNIMLLKKSLWNLDMCVVVLPRLKELLSSKYENYVHTSCACLKLILKNFTSLFNQNIKCPPSGIDITREERYNKCSKCYSYLIATRGYVEEKQHVSGKLGSSFRELHLLLDQLE
ATPase activity (malachite green), stimulation by microtubules: this activity was stimulated ˜10-fold by microtubules
maximal microtubule-stimulated ATPase rate: maximal microtubule-stimulated rate of 3 ATP/katanin/sec
microtubule concentration at peak ATPase stimulation: peak at ˜2 µM tubulin
microtubule severing, fluorescence microscopy assay: Both p60 and p60/p80 severed microtubules in this assay

B2: baculovirus-expressed S. purpuratus katanin p60 subunit with N-terminal His(6) tag (protein)
chain: B1 chain 1
ATPase activity (malachite green), stimulation by microtubules: p60 alone displayed a microtubule-stimulated ATPase activity
microtubule concentration at peak ATPase stimulation: peak at ˜2 µM tubulin
microtubule severing, fluorescence microscopy assay: Both p60 and p60/p80 severed microtubules in this assay
